91 substances from the Human Domainome abundance scans (Beltran et al. 2025) can be followed below.

± gives the uncertainty stated by the source.

The data set is described as follows: abundance fitness (aPCA) (normalised: wild type 0, dead -1); higher = more abundant; growth selection in yeast, the domain comes from the species named. As to conditions: Saccharomyces cerevisiae (strain ATCC 204508 / S288c).
For “E3 ubiquitin-protein ligase RSP5 Q366T, P39940”, the abundance fitness amounted to 0.054 ± 0.078.
To “E3 ubiquitin-protein ligase RSP5 Q366V, P39940” belongs 0.023 ± 0.11; to “E3 ubiquitin-protein ligase RSP5 Q366W, P39940”, -0.001 ± 0.061; to “E3 ubiquitin-protein ligase RSP5 Q366Y, P39940”, 0.307 ± 0.21.
“E3 ubiquitin-protein ligase RSP5 R340A, P39940” came in with an abundance fitness of 0.018 ± 0.047.
Regarding “E3 ubiquitin-protein ligase RSP5 R340C, P39940”, the abundance fitness was determined as 0.064 ± 0.059.
In the case of “E3 ubiquitin-protein ligase RSP5 R340D, P39940”, the abundance fitness is -0.256 ± 0.074.
As for “E3 ubiquitin-protein ligase RSP5 R340E, P39940”, the abundance fitness was -0.01 ± 0.063.
To “E3 ubiquitin-protein ligase RSP5 R340F, P39940” belongs -0.155 ± 0.16; to “E3 ubiquitin-protein ligase RSP5 R340H, P39940”, -0.206 ± 0.22; to “E3 ubiquitin-protein ligase RSP5 R340I, P39940”, 0.002 ± 0.087.
In turn, “E3 ubiquitin-protein ligase RSP5 R340K, P39940” came in with an abundance fitness of 0.133 ± 0.081.
The figure for “E3 ubiquitin-protein ligase RSP5 R340L, P39940” is 0.078 ± 0.055.
To “E3 ubiquitin-protein ligase RSP5 R340M, P39940” belongs 0.052 ± 0.055; to “E3 ubiquitin-protein ligase RSP5 R340N, P39940”, -0.089 ± 0.08; to “E3 ubiquitin-protein ligase RSP5 R340P, P39940”, -1 ± 0.063.
To “E3 ubiquitin-protein ligase RSP5 R340Q, P39940” belongs 0.001 ± 0.054; to “E3 ubiquitin-protein ligase RSP5 R340S, P39940”, -0.039 ± 0.057; to “E3 ubiquitin-protein ligase RSP5 R340T, P39940”, -0.108 ± 0.062.
As for “E3 ubiquitin-protein ligase RSP5 R340V, P39940”, the abundance fitness was determined as 0.022 ± 0.049.
As for “E3 ubiquitin-protein ligase RSP5 R340W, P39940”, the abundance fitness is -0.088 ± 0.054.
For the substance “E3 ubiquitin-protein ligase RSP5 R346A, P39940”, the abundance fitness is 0.121 ± 0.05.
On to “E3 ubiquitin-protein ligase RSP5 R346C, P39940”, for which the abundance fitness amounted to 0.095 ± 0.069.
“E3 ubiquitin-protein ligase RSP5 R346D, P39940”: the abundance fitness turned out to be 0.307 ± 0.057.
The substance “E3 ubiquitin-protein ligase RSP5 R346E, P39940” had an abundance fitness of 0.414 ± 0.06.
Take “E3 ubiquitin-protein ligase RSP5 R346F, P39940”: the abundance fitness is -0.042 ± 0.069.
“E3 ubiquitin-protein ligase RSP5 R346G, P39940” showed an abundance fitness of 0.016 ± 0.044.
Consider “E3 ubiquitin-protein ligase RSP5 R346H, P39940”, for which the abundance fitness amounted to 0.289 ± 0.096.
The figure for “E3 ubiquitin-protein ligase RSP5 R346K, P39940” is 0.192 ± 0.064; for “E3 ubiquitin-protein ligase RSP5 R346L, P39940” it is 0.078 ± 0.05; for “E3 ubiquitin-protein ligase RSP5 R346M, P39940” it is 0.222 ± 0.067.
For the substance “E3 ubiquitin-protein ligase RSP5 R346N, P39940”, the abundance fitness worked out at 0.185 ± 0.085.
The figure for “E3 ubiquitin-protein ligase RSP5 R346P, P39940” is -0.165 ± 0.049.
Regarding “E3 ubiquitin-protein ligase RSP5 R346Q, P39940”, the abundance fitness was found to be 0.165 ± 0.066.
“E3 ubiquitin-protein ligase RSP5 R346S, P39940” displayed an abundance fitness of 0.15 ± 0.05.
As to “E3 ubiquitin-protein ligase RSP5 R346T, P39940”, the abundance fitness was 0.094 ± 0.053.
The figure for “E3 ubiquitin-protein ligase RSP5 R346V, P39940” is 0.056 ± 0.049; for “E3 ubiquitin-protein ligase RSP5 R346W, P39940” it is -0.017 ± 0.073; for “E3 ubiquitin-protein ligase RSP5 R346Y, P39940” it is 0.068 ± 0.079.
Turning to “E3 ubiquitin-protein ligase RSP5 R355C, P39940”, the abundance fitness was -0.17 ± 0.052.
Consider “E3 ubiquitin-protein ligase RSP5 R355D, P39940”, for which the abundance fitness is -0.462 ± 0.088.
The figure for “E3 ubiquitin-protein ligase RSP5 R355E, P39940” is -0.159 ± 0.053; for “E3 ubiquitin-protein ligase RSP5 R355F, P39940” it is -0.057 ± 0.2; for “E3 ubiquitin-protein ligase RSP5 R355G, P39940” it is -0.186 ± 0.041.
“E3 ubiquitin-protein ligase RSP5 R355H, P39940”: the abundance fitness was -0.101 ± 0.063.
For “E3 ubiquitin-protein ligase RSP5 R355I, P39940”, the abundance fitness is -0.35 ± 0.086.
For “E3 ubiquitin-protein ligase RSP5 R355K, P39940”, the abundance fitness is 0.033 ± 0.066.
As for “E3 ubiquitin-protein ligase RSP5 R355L, P39940”, the abundance fitness was -0.192 ± 0.049.
To “E3 ubiquitin-protein ligase RSP5 R355M, P39940” belongs -0.065 ± 0.07; to “E3 ubiquitin-protein ligase RSP5 R355N, P39940”, -0.008 ± 0.069; to “E3 ubiquitin-protein ligase RSP5 R355P, P39940”, -0.64 ± 0.064.
To “E3 ubiquitin-protein ligase RSP5 R355Q, P39940” belongs -0.013 ± 0.069; to “E3 ubiquitin-protein ligase RSP5 R355T, P39940”, -0.257 ± 0.068; to “E3 ubiquitin-protein ligase RSP5 R355V, P39940”, -0.425 ± 0.045.
The figure for “E3 ubiquitin-protein ligase RSP5 R363C, P39940” is -0.219 ± 0.068; for “E3 ubiquitin-protein ligase RSP5 R363D, P39940” it is -0.725 ± 0.067; for “E3 ubiquitin-protein ligase RSP5 R363E, P39940” it is -0.443 ± 0.057.
Regarding “E3 ubiquitin-protein ligase RSP5 R363F, P39940”, the abundance fitness is -0.805 ± 0.11.
Regarding “E3 ubiquitin-protein ligase RSP5 R363G, P39940”, the abundance fitness is -0.276 ± 0.041.
For “E3 ubiquitin-protein ligase RSP5 R363H, P39940”, the abundance fitness was -0.398 ± 0.066.
The figure for “E3 ubiquitin-protein ligase RSP5 R363I, P39940” is -0.473 ± 0.061.
In the case of “E3 ubiquitin-protein ligase RSP5 R363K, P39940”, the abundance fitness is -0.41 ± 0.057.
Take “E3 ubiquitin-protein ligase RSP5 R363L, P39940”: the abundance fitness is -0.377 ± 0.047.
For “E3 ubiquitin-protein ligase RSP5 R363M, P39940”, the abundance fitness was -0.233 ± 0.061.
“E3 ubiquitin-protein ligase RSP5 R363N, P39940”: the abundance fitness was -0.357 ± 0.069.
As to “E3 ubiquitin-protein ligase RSP5 R363Q, P39940”, the abundance fitness was -0.367 ± 0.06.
Turning to “E3 ubiquitin-protein ligase RSP5 R363S, P39940”, the abundance fitness is -0.262 ± 0.049.
In the case of “E3 ubiquitin-protein ligase RSP5 R363T, P39940”, the abundance fitness was -0.256 ± 0.056.
For the substance “E3 ubiquitin-protein ligase RSP5 R363V, P39940”, the abundance fitness is -0.437 ± 0.046.
For “E3 ubiquitin-protein ligase RSP5 R363W, P39940”, the abundance fitness is -0.511 ± 0.06.
Regarding “E3 ubiquitin-protein ligase RSP5 R363Y, P39940”, the abundance fitness was -0.667 ± 0.08.
As to “E3 ubiquitin-protein ligase RSP5 R364A, P39940”, the abundance fitness was 0.113 ± 0.055.
For the substance “E3 ubiquitin-protein ligase RSP5 R364D, P39940”, the abundance fitness stood at 0.126 ± 0.067.
To “E3 ubiquitin-protein ligase RSP5 R364E, P39940” belongs 0.129 ± 0.052.
In turn, “E3 ubiquitin-protein ligase RSP5 R364H, P39940” returned an abundance fitness of 0.163 ± 0.092.
To “E3 ubiquitin-protein ligase RSP5 R364I, P39940” belongs -0.088 ± 0.11; to “E3 ubiquitin-protein ligase RSP5 R364L, P39940”, 0.074 ± 0.043; to “E3 ubiquitin-protein ligase RSP5 R364M, P39940”, 0.051 ± 0.059.
For “E3 ubiquitin-protein ligase RSP5 R364P, P39940”, the abundance fitness was determined as 0.072 ± 0.052.
“E3 ubiquitin-protein ligase RSP5 R364Q, P39940” showed an abundance fitness of 0.066 ± 0.054.
The figure for “E3 ubiquitin-protein ligase RSP5 R364S, P39940” is 0.087 ± 0.05.
The figure for “E3 ubiquitin-protein ligase RSP5 R364T, P39940” is 0.077 ± 0.057; for “E3 ubiquitin-protein ligase RSP5 R364V, P39940” it is 0.035 ± 0.049.
Consider “E3 ubiquitin-protein ligase RSP5 R364W, P39940”, for which the abundance fitness was -0.072 ± 0.048.
On to “E3 ubiquitin-protein ligase RSP5 R364Y, P39940”, for which the abundance fitness is -0.026 ± 0.086.
For “E3 ubiquitin-protein ligase RSP5 S328A, P39940”, the abundance fitness was -0.172 ± 0.046.
Substance “E3 ubiquitin-protein ligase RSP5 S328C, P39940” had an abundance fitness of 0.054 ± 0.079.
Turning to “E3 ubiquitin-protein ligase RSP5 S328D, P39940”, the abundance fitness amounted to 0.126 ± 0.074.
The figure for “E3 ubiquitin-protein ligase RSP5 S328G, P39940” is -0.113 ± 0.042.
For the substance “E3 ubiquitin-protein ligase RSP5 S328H, P39940”, the abundance fitness is -0.014 ± 0.076.
The figure for “E3 ubiquitin-protein ligase RSP5 S328K, P39940” is 0.083 ± 0.055.
